# Measurements: patent US20110224407A1 (published 2011)
# T1: human IFNAR1-ECD (human, UniProt P17181 28-436)
# T1 construct: extracellular domain; Purified ECD captured on the chip by antibody DB2 and cross-linked with AA3; also called purified human IFNAR-1
# T1 sequence (looked up): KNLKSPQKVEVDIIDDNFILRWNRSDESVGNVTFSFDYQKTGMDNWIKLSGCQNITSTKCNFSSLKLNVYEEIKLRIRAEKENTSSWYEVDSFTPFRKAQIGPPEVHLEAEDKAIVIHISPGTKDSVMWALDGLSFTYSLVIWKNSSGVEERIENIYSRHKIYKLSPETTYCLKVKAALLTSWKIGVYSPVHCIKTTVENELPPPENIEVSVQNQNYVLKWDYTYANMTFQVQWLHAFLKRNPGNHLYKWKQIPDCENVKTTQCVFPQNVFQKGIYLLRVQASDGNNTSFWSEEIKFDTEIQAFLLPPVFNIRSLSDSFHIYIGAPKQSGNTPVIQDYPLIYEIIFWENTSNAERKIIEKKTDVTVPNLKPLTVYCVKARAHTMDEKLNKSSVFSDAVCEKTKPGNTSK
# B1: human-derived chimeric IFN-α2/α1 (native) (ligand)
# chain: CDLPQTHSLGSRRTLMLLAQMRKISLFSCLKDRHDFGFPQEEFGNQFQKAETIPVLHEMIQQIFNLFTTKDSSAAWDEDLLDKFCTELYQQLNDLEACVMQEERVGETPLMNADSILAVKKYFRRITLYLTEKKYSPCAWEVVRAEIMRSLSLSTNLQERLRRKE
# notes: the text itself names F64; E. coli; also called IFN-αA/D; Hu-alpha2/1
# Columns and labels:
# [1] = biological target: human IFNAR-1 on human cells (HeLa, WISH, A549) (human) (UniProt P17181); assay: cell-based or functional assay
# [2] = biological target: murine IFNAR-1 on murine cells (L-929, NFS-01) (murine) (UniProt P33896); assay: cell-based or functional assay
# Sequence of murine IFNAR-1 on murine cells (L-929, NFS-01) (murine) (P33896 27-590): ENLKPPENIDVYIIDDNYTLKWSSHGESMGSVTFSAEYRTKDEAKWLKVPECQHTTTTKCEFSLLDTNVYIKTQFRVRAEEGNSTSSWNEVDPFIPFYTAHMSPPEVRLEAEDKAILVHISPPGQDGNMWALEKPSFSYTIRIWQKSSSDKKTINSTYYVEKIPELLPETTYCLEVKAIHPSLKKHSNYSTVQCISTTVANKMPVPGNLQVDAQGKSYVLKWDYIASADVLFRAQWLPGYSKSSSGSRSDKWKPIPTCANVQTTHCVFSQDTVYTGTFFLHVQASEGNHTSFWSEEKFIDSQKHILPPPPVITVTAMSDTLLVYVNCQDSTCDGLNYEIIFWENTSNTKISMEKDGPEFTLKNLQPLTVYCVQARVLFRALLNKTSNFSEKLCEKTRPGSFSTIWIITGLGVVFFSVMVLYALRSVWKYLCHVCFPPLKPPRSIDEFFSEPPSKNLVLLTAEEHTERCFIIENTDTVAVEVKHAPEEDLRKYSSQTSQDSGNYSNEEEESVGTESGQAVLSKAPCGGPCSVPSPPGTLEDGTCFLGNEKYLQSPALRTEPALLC
# human IFNAR1-ECD = biological target: T1, human IFNAR1-ECD; assay: SPR, IFNAR-1-ECD captured by antibody
# Method: Binding to purified human IFNAR-1 and IFNAR-2 is measured with the Protein Interaction Array system (Bio-Rad) according to published methods. A solution of 0.005% Tween20 in PBS pH 7.4 was used as running buffer at a flow rate of 30 μl/min. […] Thereafter, five of the six channels were reacted with IFNAR1-ECD or IFNAR2-ECD (180 μl at a concentration of 0.5 μM), leaving one channel free as reference. This was followed by cross-linking a second antibody. […] Data were analyzed with the BIAeval 4.1 software, using, the standard Langmuir models for fitting kinetic data. Dissociation constants KD were determined from the rate constants according to:
molecule,measurement,setting,value
IFN-α2/α1[C85A/Y89A] (from UniProt A0A087WWS6 25-190) (ligand),"Antiviral Activity (% of Native), Human (HeLa)",[1],143%
same,"Antiviral Activity (% of Native), Human (Wish)",[1],183%
IFN-α2/α1[L80A] (from UniProt A0A087WWS6 25-190) (ligand),"Antiviral Activity (% of native), Human; *Assay on human A549 cells",[1],19%
same,"Antiviral Activity (% of Native), Murine (L-929)",[2],31%
IFN-α2/α1[C85A] (from UniProt A0A087WWS6 25-190) (ligand),"Antiviral Activity (% of Native), Human (HeLa)",[1],141%
same,"Antiviral Activity (% of Native), Murine (L-929)",[2],144%
IFN-α2 NLYY-117A (N65A/L80A/Y85A/Y89A/L117A) (from UniProt P01563 24-188) (ligand),"Antiviral Activity (% of Native EC50), Human (Wish)",[1],0.03%
IFN-α2/α1[K121E] (from UniProt A0A087WWS6 25-190) (ligand),"Antiviral Activity (% of Native), Human (HeLa)",[1],8%
same,"Antiviral Activity (% of Native), Murine (L-929)",[2],0.5%
IFN-α2b[R120A] (from UniProt P01563 24-188) (ligand),"Antiproliferative Activity, Human (Wish; %)",[1],0.05%
same,"Antiviral Activity (% of Native EC50), Human (HeLa)",[1],2.3%
IFN-α2/α1[K120E/K121E/R124E] (from UniProt A0A087WWS6 25-190) (ligand),"Antiproliferative Activity (% of native), Human (WISH)",[1],< 0.2%
same,"Antiviral Activity (% of Native), Human (HeLa)",[1],< 0.04%
same,"Antiviral Activity (% of Native), Human (Wish)",[1],< 0.1%
same,"Antiviral Activity (% of Native), Murine (L-929)",[2],< 0.01%
IFN-α2/α1[R124E] (from UniProt A0A087WWS6 25-190) (ligand),"Antiviral Activity (% of Native), Human (HeLa)",[1],20%
same,"Antiviral Activity (% of Native), Murine (L-929)",[2],100%
IFN-α2/α1[Y89A] (from UniProt A0A087WWS6 25-190) (ligand),"Antiviral Activity (% of Native), Human (HeLa)",[1],69%
same,"Antiviral Activity (% of Native), Human (Wish)",[1],96%
same,"Antiviral Activity (% of Native), Murine (L-929)",[2],38%
IFN-α2/α1 5-site alanine substitution mutant (F64/N65/L80/C85/Y89) (from UniProt A0A087WWS6 25-190) (ligand),"Antiviral Activity (% of Native), Human (HeLa)",[1],4.2%
same,"Antiviral Activity (% of Native), Human (Wish)",[1],11%
IFN-α2/α1[K120A/K121A] (from UniProt A0A087WWS6 25-190) (ligand),"Antiproliferative Activity (% of native), Human (WISH)",[1],0.5%
same,"Antiviral Activity (% of Native), Human (HeLa)",[1],8.3%
same,"Antiviral Activity (% of Native), Human (Wish)",[1],13.8%
same,"Antiproliferative Activity (% of native), Murine (NFS-01)",[2],8%
same,"Antiviral Activity (% of Native), Murine (L-929)",[2],33%
IFN-α2/α1[K120E] (from UniProt A0A087WWS6 25-190) (ligand),"Antiproliferative Activity (% of native), Human (WISH)",[1],< 0.02%
same,"Antiviral Activity (% of Native), Human (HeLa)",[1],< 0.04%
same,"Antiviral Activity (% of Native), Human (Wish)",[1],< 0.02%
same,"Antiproliferative Activity (% of native), Murine (NFS-01)",[2],< 0.0005%
same,"Antiviral Activity (% of Native), Murine (L-929)",[2],< 0.04%
IFN-α2 NLYY-120A (N65A/L80A/Y85A/Y89A/R120A) (from UniProt P01563 24-188) (ligand),"Antiproliferative Activity (% of Native EC50), Human (Wish)",[1],< 0.001%
same,"Antiviral Activity (% of Native EC50), Human (HeLa)",[1],< 0.002%
same,"Antiviral Activity (% of Native EC50), Human (Wish)",[1],< 0.001%
IFN-α2/α1[K120E/K121E] (from UniProt A0A087WWS6 25-190) (ligand),"Antiproliferative Activity (% of native), Human (WISH)",[1],< 0.05%
same,"Antiviral Activity (% of Native), Human (HeLa)",[1],< 0.08%
same,"Antiviral Activity (% of Native), Human (Wish)",[1],0.006%
same,"Antiproliferative Activity (% of native), Murine (NFS-01)",[2],< 0.0001%
same,"Antiviral Activity (% of Native), Murine (L-929)",[2],< 0.04%
IFN-α2b-[Arg120Glu/Lys121Glu] (from UniProt P01563 24-188) (ligand),"Antiproliferative Activity (% of Native EC50), Human (Wish)",[1],< 0.02%
same,"Antiviral Activity (% of Native EC50), Human (HeLa)",[1],< 1.3%
same,"Antiviral Activity (% of Native EC50), Human (Wish)",[1],< 0.002%
IFN-α2/α1[L80A/C85A/Y89A] (from UniProt A0A087WWS6 25-190) (ligand),"Antiviral Activity (% of Native), Human (HeLa)",[1],54%
same,"Antiviral Activity (% of Native), Human (Wish)",[1],204%
same,"Antiviral Activity (% of Native), Murine (L-929)",[2],100%
IFN-α2/α1[K120A] (from UniProt A0A087WWS6 25-190) (ligand),"Antiproliferative Activity (% of native), Human (WISH)",[1],0.7%
same,"Antiviral Activity (% of Native), Human (HeLa)",[1],2%
same,"Antiviral Activity (% of Native), Human (Wish)",[1],9.7%
same,"Antiproliferative Activity (% of native), Murine (NFS-01)",[2],0.03%
same,"Antiviral Activity (% of Native), Murine (L-929)",[2],2%
IFN-α2/α1[N65A/L80A/C85A/Y89A] (from UniProt A0A087WWS6 25-190) (ligand),"Antiviral activity (relative %), IFN-α2/α1, Human HeLa (partial results)",[1],63%
same,"Antiviral Activity (% of Native), Murine (L-929)",[2],55%
B1,fold stronger affinity than IFN-α2,human IFNAR1-ECD,~5 fold
same,ratio of KD to that of IFN-α2,human IFNAR1-ECD,~0.2
